Each substance was assayed against Human TRF2^TRFH (residues 42-245) (human) (assay: ITC).

Point of comparison: mNBS1^S433A peptide, Kd 21.7 µM. Against it:
- WT mNBS1 peptide — within 1.5-fold, 19.8 µM
- hNBS1^S432A peptide (423–438) (from UniProt O60934 423-438) — within 1.5-fold, 16 µM
- WT hNBS1 peptide (423–438) (from UniProt O60934 423-438) — within 1.5-fold, 17 µM

From publication PMC5639704
